Results: paper PMC10786891, “Massively parallel profiling of RNA-targeting CRISPR-Cas13d”
Changes are numbered by the printed parent chain. Numbers in names are those of the source.

T1: EsCas13d, nuclease-dead (Eubacterium siraeum, UniProt B0MS50, R295A;H300A;R849A;H854A)
T1 sequence: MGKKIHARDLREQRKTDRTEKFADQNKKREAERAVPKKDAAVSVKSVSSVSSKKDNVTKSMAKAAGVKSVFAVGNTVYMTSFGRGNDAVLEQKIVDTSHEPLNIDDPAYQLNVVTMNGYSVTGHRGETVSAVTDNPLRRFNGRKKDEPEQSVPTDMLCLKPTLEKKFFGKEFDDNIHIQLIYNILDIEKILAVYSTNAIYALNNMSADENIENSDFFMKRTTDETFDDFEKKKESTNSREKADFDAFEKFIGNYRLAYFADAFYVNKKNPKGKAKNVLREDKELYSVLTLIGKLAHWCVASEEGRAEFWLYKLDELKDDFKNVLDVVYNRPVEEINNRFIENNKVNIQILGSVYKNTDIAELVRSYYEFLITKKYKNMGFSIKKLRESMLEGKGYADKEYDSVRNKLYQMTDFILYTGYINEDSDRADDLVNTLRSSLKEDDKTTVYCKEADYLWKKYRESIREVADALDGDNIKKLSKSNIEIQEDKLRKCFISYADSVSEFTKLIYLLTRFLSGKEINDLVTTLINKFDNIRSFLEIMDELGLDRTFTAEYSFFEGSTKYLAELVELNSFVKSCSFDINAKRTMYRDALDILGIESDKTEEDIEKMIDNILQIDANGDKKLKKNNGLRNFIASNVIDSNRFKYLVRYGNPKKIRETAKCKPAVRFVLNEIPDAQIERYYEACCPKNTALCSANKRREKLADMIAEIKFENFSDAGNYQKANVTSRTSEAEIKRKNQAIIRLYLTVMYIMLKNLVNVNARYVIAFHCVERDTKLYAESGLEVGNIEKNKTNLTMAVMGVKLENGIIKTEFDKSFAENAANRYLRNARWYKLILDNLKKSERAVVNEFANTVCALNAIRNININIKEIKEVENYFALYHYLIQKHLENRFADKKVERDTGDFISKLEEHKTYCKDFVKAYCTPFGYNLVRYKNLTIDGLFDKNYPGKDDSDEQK

B1: target 1 C6A,G12C (mixed)
RNA 1: CACCCGUGCAAAAAUGCAGGGGUCUAAAACUGAGCGGAUAACCUCUCUAUGG
RNA 2: GGGAAUGGAUCCACAUCUACGAAUUCGUACCAUAGAGAGCUUAUCAGCUCACCGAGAUCGGAAGAGCACACGU
B2: target 1 insC 3' of 22,insC 3' of 9 (mixed)
RNA 1: B1 RNA 1
RNA 2: GGGAAUGGAUCCACAUCUACGAAUUCGUACCCAUAGAGAGGUUACUCCGCUCACCGAGAUCGGAAGAGCACACGU
B3: target 1 U8G,U19G (mixed)
RNA 1: B1 RNA 1
RNA 2: B1 RNA 2 with U33G, C40G, U44G, A46C
B4: target 1 insG 3' of 22,insU 3' of 4 (mixed)
RNA 1: B1 RNA 1
RNA 2: B2 RNA 2 with C31G, C45U, U46C, C48G, G49C, C50U
B5: target 1 G12C,G15U (mixed)
RNA 1: B1 RNA 1
RNA 2: B1 RNA 2 with G37U, A46C
B6: target 1 C2U,A9C (mixed)
RNA 1: B1 RNA 1
RNA 2: B1 RNA 2 with C40G, A43C, A46C, C50U
B7: target 1 insA 3' of 22,insA 3' of 11 (mixed)
RNA 1: B1 RNA 1
RNA 2: B2 RNA 2 with C31A, U43A, A44U, C45A
B8: target 1 insU 3' of 22,insG 3' of 19 (mixed)
RNA 1: B1 RNA 1
RNA 2: GGGAAUGGAUCCACAUCUACGAAUUCGUACUCAUGAGAGAGGUUAUCCGCUCACCGAGAUCGGAAGAGCACACGU
B9: target 1 insA 3' of 19,insG 3' of 14 (mixed)
RNA 1: B1 RNA 1
RNA 2: B2 RNA 2 with C32A, A33U, U34A, U42G, A44U, C45A
B10: target 1 insA 3' of 12,insA 3' of 6 (mixed)
RNA 1: B1 RNA 1
RNA 2: GGGAAUGGAUCCACAUCUACGAAUUCGUACCAUAGAGAGGAUUAUCCAGCUCACCGAGAUCGGAAGAGCACACGU
B11: target 1 U3C,A14G (mixed)
RNA 1: B1 RNA 1
RNA 2: B1 RNA 2 with A38G, C40G, A46C, U49C
B12: target 1 G5C,U8G (mixed)
RNA 1: B1 RNA 1
RNA 2: B1 RNA 2 with C40G, U44G, A46C, G47C
B13: target 1 insG 3' of 10,insC 3' of 3 (mixed)
RNA 1: B1 RNA 1
RNA 2: B10 RNA 2 with A41U, U43G, A48G, G49C, C50U, U51C
B14: target 1 insU 3' of 22,insC 3' of 13 (mixed)
RNA 1: B1 RNA 1
RNA 2: B2 RNA 2 with C31U, G41C, U42G, A44U, C45A
B15: target 1 insA 3' of 10 (mixed)
RNA 1: B1 RNA 1
RNA 2: GGGAAUGGAUCCACAUCUACGAAUUCGUACCAUAGAGAGGUUAAUCCGCUCACCGAGAUCGGAAGAGCACACGU
B16: target 1 insC 3' of 13,insG 3' of 8 (mixed)
RNA 1: B1 RNA 1
RNA 2: B10 RNA 2 with G40C, A41G, C46G, A48C

What follows are binders tested against T1, EsCas13d, nuclease-dead (assay: crRNA (strand 1, pre-loaded); Mg2+; 40 mM Tris-HCl pH 7.5, 150 mM NaCl, 6 mM MgCl2, 1 mM DTT, 0.1% Tween-20, 0.2 mg/ml BSA; 25 C; 10 min per concentration, then washed). Conditions: tags: His6-TwinStrep-SUMO cleaved; N-terminal SNAP kept (SNAP-Surface 488); label: 3' end held by stalled T7 RNA polymerase.

Point of comparison: B7, Kd 17.6 ± 1 nM. Against it:
- B1 — within 1.5-fold, 14.8 ± 0.5 nM
- B2 — 2.8-fold higher, 50 ± 13 nM
- B3 — 4.5-fold higher, 79 ± 15 nM
- B4 — 1.8-fold higher, 32 ± 5 nM
- B5 — 3.4-fold higher, ~60 nM
- B6 — within 1.5-fold, 14.2 ± 0.5 nM
- B8 — 4.9-fold higher, 86 ± 19 nM
- B9 — 1.6-fold higher, 28.6 ± 1.5 nM
- B10 — 2.1-fold higher, 37.3 ± 3 nM
- B11 — 3.2-fold higher, 57 ± 18 nM
- B12 — 2-fold higher, 35 ± 4 nM
- B13 — 1.5-fold higher, 26.7 ± 1.9 nM
- B14 — 5-fold higher, 88 ± 32 nM
- B15 — within 1.5-fold, 12 ± 0.5 nM
- B16 — within 1.5-fold, 13.9 ± 1.5 nM
